# Data as given in publication doi:10.1101/2021.10.14.464379 (bioRxiv, 2021).
# B1: Ipomoea batatas BAM5 (sweet potato beta-amylase) (enzyme)
# chain: APIPGVMPIGNYVSLYVMLPLGVVNADNVFPDKEKVEDELKQVKAGGCDGVMVDVWWGIIEAKGPKQYDWSAYRELFQLVKKCGLKIQAIMSFHQCGGNVGDAVFIPIPQWILQIGDKNPDIFYTNRAGNRNQEYLSLGVDNQRLFQGRTALEMYRDFMESFRDNMADFLKAGDIVDIEVGCGAAGELRYPSYPETQGWVFPGIGEFQCYDKYMVADWKEAVKQAGNADWEMPGKGAGTYNDTPDKTEFFRPNGTYKTDMGKFFLTWYSNKLIIHGDQVLEEANKVFVGLRVNIAAKVSGIHWWYNHVSHAAELTAGFYNVAGRDGYRPIARMLARHHATLNFTCLEMRDSEQPAEAKSAPQELVQQVLSSGWKEYIDVAGENALPRYDATAYNQMLLNVRPNGVNLNGPPKLKMSGLTYLRLSDDLLQTDNFELFKKFVKKMHADLDPSPNAISPAVLERSNSAITIDELMEATKGSRPFPWYDVTDMPVDGSNPFD
# Biological target: the molecule itself
# Experiment: SAXS
protein,measurement,value
B1,stoichiometry N,4
